Laboratory results as given in the supplement of paper PMC10126150.
± gives the standard deviation of the averaged measurements.

Test system: ATP
Assay: switch fluorescence ratio, 500 uM ATP over buffer (Cy3 cluster intensity, sum of 5 cycles each) (fold (ratio)); higher = stronger signal-on switching upon ATP binding; sequences stand for … in TCGTCGGCAGCGTCAGATGTGTATAAGAGACAGTTTTTTTTTTTTTTTTTTTTTTTTT…TC
Settings: aptamer strand: ATP DNA aptamer (quencher-CACCTGGGGGAGTATTGCGGAGGAAGG + anchor), 100 nM annealed; ATP concentration: 500 uM
Outline: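 Switching-strand clusters labelled with Cy3 on a modified Illumina MiSeq flow-cell were annealed to 100 nM quencher-labelled ATP aptamer, imaged in selection buffer, and re-imaged after 15 min with 500 uM ATP at 22 °C. This was done over five cycles with NaOH stripping and re-annealing in between. The fluorescence ratio is summed target-cycle over summed buffer-cycle Cy3 intensity per cluster, averaged per switch-domain sequence, excluding clusters outside 100-1000 RFU.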
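Also: ATP exposure 15 min at 22 °C before imaging.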

Sequence | switch fluorescence ratio
CGTAAAATTT | 1.05 ± 0.12
CGTAAACGCT | 1.04 ± 0.024
CGTAAACTAG | 0.97 ± 0.016
CGTAAAGCCT | 0.991 ± 0.02
CGTAAAGGAG | 0.992 ± 0.052
CGTAACTGTT | 0.995 ± 0.091
CGTAACTTGG | 1.01 ± 0.029
CGTAATGCTT | 1.17 ± 0.032
CGTAATGGGA | 1.04 ± 0.025
CGTAATTTCT | 1.06 ± 0.038
CGTAATTTTA | 1.01 ± 0.027
CGTACCGGGT | 1.01 ± 0.022
CGTACGGCAG | 0.9978 ± 0.0052
CGTACTCCTT | 1.12 ± 0.025
CGTACTTAGC | 1.069 ± 0.0034
CGTAGAGAAA | 0.991 ± 0.044
CGTAGCTAGA | 1.89 ± 0.047
CGTAGGAGTC | 0.963 ± 0.15
CGTAGGCCGA | 0.952 ± 0.068
CGTAGGTATG | 0.983 ± 0.023
CGTAGTAAAT | 1.062 ± 0.0087
CGTAGTATAT | 1.25 ± 0.043
CGTATAAGTT | 0.937 ± 0.018
CGTATCAGGG | 1.01 ± 0.032
CGTATGAAAT | 0.9985 ± 0.0089

Sequence | switch fluorescence ratio
CGTATGAGGG | 0.9679 ± 0.0066
CGTATGGTTG | 1.06 ± 0.09
CGTATTAGAG | 1.01 ± 0.048
CGTATTAGCG | 0.952 ± 0.025
CGTATTATAA | 1.01 ± 0.023
CGTATTCTAG | 1 ± 0.023
CGTATTTTGG | 0.986 ± 0.032
CGTCAATCT | 1.53 ± 0.061
CGTCAGGCTT | 0.987 ± 0.052
CGTCATATGG | 1.07 ± 0.012
CGTCATCGGG | 0.973 ± 0.029
CGTCATGCGT | 0.964 ± 0.025
CGTCATTTAC | 1.63 ± 0.074
CGTCATTTGG | 0.9769 ± 0.0044
CGTCCAGTTC | 1.08 ± 0.023
CGTCCCCGAG | 1.054 ± 0.0087
CGTCCTAGGG | 1.04 ± 0.043
CGTCGAGGCG | 0.971 ± 0.035
CGTCGGAAAG | 1.01 ± 0.024
CGTCGGAGTC | 1.04 ± 0.031
CGTCGGGGG | 0.982 ± 0.044
CGTCGGGGGA | 1.01 ± 0.027
CGTCGGGGGC | 1.005 ± 0.0096
CGTCGTGACA | 1.03 ± 0.029
CGTCTAGTCG | 1 ± 0.025

Sequence | switch fluorescence ratio
CGTCTATTTG | 0.993 ± 0.023
CGTCTCGAAC | 1 ± 0.014
CGTCTCTTAG | 0.995 ± 0.027
CGTCTGATTG | 1.01 ± 0.025
CGTCTGGCGA | 1.02 ± 0.014
CGTCTTGGAA | 1.01 ± 0.013
CGTGACCGCC | 1.08 ± 0.028
CGTGACCGGA | 0.972 ± 0.014
CGTGACCTGT | 0.996 ± 0.022
CGTGAGGCAG | 0.978 ± 0.056
CGTGAGGGGC | 1.028 ± 0.01
CGTGATGATG | 0.982 ± 0.06
CGTGCATTGA | 1.03 ± 0.022
CGTGCTGGTG | 1.03 ± 0.022
CGTGCTTAGT | 1.02 ± 0.022
CGTGGAGAGC | 1.06 ± 0.043
CGTGGGATAG | 1.04 ± 0.036
CGTGGGATTG | 1.012 ± 0.004
CGTGGGGCAG | 1.01 ± 0.024
CGTGGGGGGT | 1.01 ± 0.018
CGTGGGGTTG | 1.01 ± 0.054
CGTGGGTCTT | 1.04 ± 0.03
CGTGGTATCA | 0.982 ± 0.077
CGTGGTCATC | 0.9766 ± 0.0073
CGTGGTCGTC | 0.991 ± 0.03

Sequence | switch fluorescence ratio
CGTGGTCGTG | 0.9672 ± 0.00049
CGTGTAGTGG | 0.984 ± 0.018
CGTGTATTCG | 1.01 ± 0.031
CGTGTCCAGG | 1.3 ± 0.024
CGTGTCCGTG | 1.01 ± 0.011
CGTGTCGACA | 0.9631 ± 0.0068
CGTGTCGCTG | 0.971 ± 0.024
CGTGTGCATG | 1.06 ± 0.13
CGTGTGGGAC | 1.0136 ± 0.00016
CGTGTGGTTT | 1.03 ± 0.037
CGTGTGTACA | 0.98 ± 0.01
CGTGTGTGGC | 1.02 ± 0.0032
CGTGTTGGCT | 1.072 ± 0.0032
CGTGTTGGTC | 1 ± 0.012
CGTGTTTTTT | 0.991 ± 0.029
CGTTAAATGT | 0.998 ± 0.022
CGTTAAGTTA | 0.974 ± 0.012
CGTTAATTAG | 1.02 ± 0.042
CGTTAATTTA | 1.01 ± 0.034
CGTTACAAGC | 1.1 ± 0.086
CGTTACACAA | 1.04 ± 0.035
CGTTAGCAGA | 1.19 ± 0.086
CGTTAGCATT | 1.17 ± 0.027
CGTTAGGATG | 0.984 ± 0.011
CGTTATGAGG | 0.991 ± 0.011

Sequence | switch fluorescence ratio
CGTTATTAGC | 1.033 ± 0.01
CGTTATTGCT | 1.016 ± 0.0039
CGTTCATGGG | 0.993 ± 0.017
CGTTCCGGGC | 1.2 ± 0.12
CGTTCGCGCG | 1.02 ± 0.023
CGTTCGTGGG | 0.953 ± 0.018
CGTTCTATTC | 1.11 ± 0.17
CGTTGAGACC | 0.995 ± 0.019
CGTTGAGTAT | 0.981 ± 0.019
CGTTGAGTTG | 0.986 ± 0.032
CGTTGAGTTT | 0.994 ± 0.047
CGTTGCACAT | 1.07 ± 0.016
CGTTGCGAGT | 0.9726 ± 0.009
CGTTGCGCTA | 1.1 ± 0.012
CGTTGCTACA | 1.01 ± 0.019
CGTTGGAAGC | 0.982 ± 0.018
CGTTGGAATC | 1.12 ± 0.014
CGTTGGCATA | 1.149 ± 0.0065
CGTTGGCGGT | 1.02 ± 0.043
CGTTGGGATC | 0.99281 ± 0.00021
CGTTGGGGGA | 0.997 ± 0.029
CGTTGGTGCG | 0.98 ± 0.059
CGTTGGTTCC | 1.034 ± 0.0058
CGTTGTGGGG | 0.966 ± 0.023
CGTTTAAATC | 0.986 ± 0.013

Sequence | switch fluorescence ratio
CGTTTACCGT | 0.983 ± 0.019
CGTTTATAGG | 1.015 ± 0.009
CGTTTATAGT | 1.02 ± 0.039
CGTTTCATTT | 0.995 ± 0.027
CGTTTCCCGG | 0.992 ± 0.031
CGTTTCGTCT | 1.05 ± 0.024
CGTTTGAAGC | 0.978 ± 0.059
CGTTTGATTA | 0.989 ± 0.017
CGTTTGGAAT | 1.03 ± 0.051
CGTTTGGACA | 0.9893 ± 0.0051
CGTTTGGCGG | 0.987 ± 0.064
CGTTTGTATA | 0.987 ± 0.015
CGTTTGTGAT | 0.9993 ± 0.0076
CGTTTGTGCG | 1.01 ± 0.053
CGTTTGTTAT | 1.05 ± 0.04
CGTTTGTTCG | 1.03 ± 0.071
CGTTTTGAGG | 0.96 ± 0.034
CGTTTTGGCA | 1.02 ± 0.027
CGTTTTGTGA | 1 ± 0.0054
CGTTTTTAGT | 1.002 ± 0.0072
CGTTTTTGCC | 1.0037 ± 0.00025
CTAAAAACGG | 1.002 ± 0.01
CTAAAATGAA | 1.03 ± 0.018
CTAAACCTGG | 1.13 ± 0.034
CTAAAGGTTT | 1.004 ± 0.003

Sequence | switch fluorescence ratio
CTAAATAGAA | 0.983 ± 0.074
CTAAATAGCA | 1.01 ± 0.016
CTAAATCGGC | 1.03 ± 0.035
CTAAATGAGC | 0.979 ± 0.02
CTAAATTTC | 1.02 ± 0.08
CTAACGCCTT | 1.13 ± 0.042
CTAACGTGAG | 1.02 ± 0.034
CTAACTTGCG | 0.995 ± 0.014
CTAAGCAGGG | 1.01 ± 0.016
CTAAGGTAAG | 0.981 ± 0.049
CTAATACTAG | 0.982 ± 0.047
CTAATGAGGG | 1.02 ± 0.036
CTAATGCGGA | 1.01 ± 0.019
CTAATGGAGG | 1.01 ± 0.011
CTAATGGGTG | 1.02 ± 0.02
CTAATTGCAA | 1.05 ± 0.066
CTAATTGGCG | 1.02 ± 0.04
CTAATTTCGT | 0.992 ± 0.014
CTAATTTTGT | 0.995 ± 0.014
CTACGGCATA | 3.11 ± 0.11
CTACGGGGTG | 1.01 ± 0.046
CTACTAGAGC | 1.02 ± 0.044
CTACTTTGGG | 1.01 ± 0.027
CTAGAAGGGA | 0.9965 ± 0.0049
CTAGAGGGCG | 1.014 ± 0.0084

Sequence | switch fluorescence ratio
CTAGATGTAT | 0.985 ± 0.017
CTAGATGTGG | 0.983 ± 0.059
CTAGCACTGT | 1.045 ± 0.0022
CTAGCCGGGG | 1.01 ± 0.031
CTAGGAGATA | 0.9736 ± 0.0014
CTAGGCAACG | 0.982 ± 0.028
CTAGGGCGCT | 0.983 ± 0.032
CTAGGGGATA | 1.02 ± 0.014
CTAGGGGGCA | 0.982 ± 0.037
CTAGGGTAAT | 0.9675 ± 0.0036
CTAGGGTGTG | 0.988 ± 0.034
CTAGGTATCA | 0.965 ± 0.054
CTAGGTGGGT | 1.01 ± 0.027
CTAGGTTCGC | 1.01 ± 0.012
CTAGTCACCG | 0.999 ± 0.019
CTAGTCGTCG | 1.02 ± 0.019
CTAGTGATTG | 0.99358 ± 0.0003
CTAGTGGCTG | 1.02 ± 0.03
CTAGTTAAGT | 0.991 ± 0.073
CTAGTTCAGC | 0.99 ± 0.028
CTAGTTTGGT | 1.008 ± 0.0049
CTATAAGGGG | 0.999 ± 0.026
CTATACAGCA | 1.06 ± 0.044
CTATACAGTG | 1.02 ± 0.011
CTATACTGAG | 1.05 ± 0.045
